Reference: the Human Domainome abundance scans (Beltran et al. 2025)
± gives the uncertainty stated by the source.

B1: Peripheral plasma membrane protein CASK, residues 488 to 569; numbered along this chain, O14936 (parent)
chain: VRLVQFQKNTDEPMGITLKMNELNHCIVARIMHGGMIHRQGTLHVGDEIREINGISVANQTVEQLQKMLREMRGSITFKIVP

Variants of: B1
Experiment: abundance fitness (aPCA) (normalised: wild type 0, dead -1); higher = more abundant; growth selection in yeast, the domain comes from the species named
Settings: Homo sapiens

Compared with C26M, C26K is lower in abundance fitness: -0.076 ± 0.033 for the first, -0.202 ± 0.04 for the second.

Compared with C26L, I31H is lower in abundance fitness: -0.083 ± 0.026 for the first, -0.779 ± 0.27 for the second.

Compared with I31A, M72R is higher in abundance fitness: -0.647 ± 0.059 for the first, -0.14 ± 0.021 for the second.

First: M72Y
Second: M72F
The abundance fitness of the first is lower: -0.055 ± 0.041 for the first, 0.039 ± 0.038 for the second.

V81T and V81M are within error of each other in abundance fitness: -0.075 ± 0.034 for the first, -0.05 ± 0.038 for the second.

Going from V81I to P13R, the abundance fitness falls from -0.016 ± 0.039 to -0.183 ± 0.046.

P13G and P13F are within error of each other in abundance fitness: -0.024 ± 0.054 for the first, -0.126 ± 0.059 for the second.

Going from P13C to V1H, the abundance fitness falls from 0.024 ± 0.06 to -0.207 ± 0.069.

Going from V1L to V1R, the abundance fitness falls from -0.098 ± 0.035 to -0.177 ± 0.043.

First: V1T
Second: V1Q
The abundance fitness of the first is higher: 0.015 ± 0.043 for the first, -0.189 ± 0.09 for the second.

V1E and T10F are within error of each other in abundance fitness: 0.03 ± 0.043 for the first, 0.012 ± 0.085 for the second.

T10I and T10K are within error of each other in abundance fitness: -0.081 ± 0.06 for the first, -0.029 ± 0.04 for the second.

T10M and T10E are within error of each other in abundance fitness: -0.007 ± 0.042 for the first, -0.07 ± 0.032 for the second.

First: T77S
Second: T77H
The abundance fitness of the first is higher: -0.002 ± 0.035 for the first, -0.194 ± 0.055 for the second.

T77K and T77Q are within error of each other in abundance fitness: -0.041 ± 0.057 for the first, -0.04 ± 0.039 for the second.

First: R30Q
Second: R30I
The abundance fitness of the first is higher: -0.013 ± 0.045 for the first, -0.372 ± 0.087 for the second.

R30G and R30F are within error of each other in abundance fitness: -0.005 ± 0.024 for the first, -0.083 ± 0.1 for the second.

Compared with Q40S, Q40P is lower in abundance fitness: -0.043 ± 0.023 for the first, -0.552 ± 0.04 for the second.

L3V and L3F are within error of each other in abundance fitness: 0.002 ± 0.026 for the first, 0.007 ± 0.05 for the second.

Going from L3C to N59D, the abundance fitness rises from -0.198 ± 0.038 to -0.038 ± 0.034.

Compared with N59E, S75M is lower in abundance fitness: -0.001 ± 0.028 for the first, -0.081 ± 0.041 for the second.

S75T and S75H are within error of each other in abundance fitness: 0.023 ± 0.033 for the first, -0.047 ± 0.053 for the second.

S75V and S75D are within error of each other in abundance fitness: 0.011 ± 0.025 for the first, 0.033 ± 0.037 for the second.

Q60D and Q60T are within error of each other in abundance fitness: -0.154 ± 0.036 for the first, -0.09 ± 0.029 for the second.

Going from Q60V to Q60A, the abundance fitness rises from -0.118 ± 0.025 to -0.045 ± 0.024.

Q60L and E63N are within error of each other in abundance fitness: -0.051 ± 0.025 for the first, -0.043 ± 0.065 for the second.

E48D and E48M are within error of each other in abundance fitness: -0.108 ± 0.049 for the first, -0.158 ± 0.049 for the second.

E48A and R50S are within error of each other in abundance fitness: -0.105 ± 0.033 for the first, -0.079 ± 0.039 for the second.

First: R50C
Second: R50W
The abundance fitness of the first is higher: 0.038 ± 0.056 for the first, -0.118 ± 0.036 for the second.

First: R50H
Second: R50G
The abundance fitness of the first is higher: -0.148 ± 0.11 for the first, -0.315 ± 0.034 for the second.

Compared with M20K, M20G is lower in abundance fitness: 0.034 ± 0.029 for the first, -0.453 ± 0.031 for the second.

M20R and M20T are within error of each other in abundance fitness: -0.034 ± 0.024 for the first, -0.088 ± 0.04 for the second.

Compared with M20Q, M20E is lower in abundance fitness: -0.059 ± 0.038 for the first, -0.302 ± 0.042 for the second.

Going from M20W to M20A, the abundance fitness falls from -0.044 ± 0.032 to -0.128 ± 0.032.

H44Q and H44Y are within error of each other in abundance fitness: -0.006 ± 0.03 for the first, -0.075 ± 0.051 for the second.

L23F and L23P are within error of each other in abundance fitness: -0.04 ± 0.049 for the first, -0.073 ± 0.036 for the second.

First: L23S
Second: I52R
The abundance fitness of the first is higher: 0.028 ± 0.029 for the first, -0.649 ± 0.45 for the second.

D11Y and D11W are within error of each other in abundance fitness: -0.22 ± 0.077 for the first, -0.175 ± 0.038 for the second.

D11E and D11R are within error of each other in abundance fitness: -0.05 ± 0.03 for the first, -0.023 ± 0.029 for the second.

First: D11N
Second: D11I
The abundance fitness of the first is higher: 0.08 ± 0.05 for the first, -0.142 ± 0.074 for the second.

D11S and T42D are within error of each other in abundance fitness: 0.009 ± 0.04 for the first, -0.007 ± 0.032 for the second.

Going from T42K to T42P, the abundance fitness falls from 0.025 ± 0.031 to -0.336 ± 0.033.

Compared with I76T, I76F is higher in abundance fitness: -0.269 ± 0.04 for the first, -0.173 ± 0.054 for the second.

G54Q and G54S are within error of each other in abundance fitness: -0.085 ± 0.077 for the first, -0.071 ± 0.037 for the second.

First: G54V
Second: G54A
The abundance fitness of the first is lower: -0.797 ± 0.063 for the first, -0.191 ± 0.034 for the second.

G54R and G54N are within error of each other in abundance fitness: -0.193 ± 0.028 for the first, -0.16 ± 0.12 for the second.

Compared with G54C, T61F is lower in abundance fitness: -0.254 ± 0.051 for the first, -0.457 ± 0.058 for the second.

Going from H33E to H33Y, the abundance fitness falls from 0.066 ± 0.033 to -0.107 ± 0.053.

H33Q and H33T are within error of each other in abundance fitness: 0.045 ± 0.036 for the first, 0.005 ± 0.035 for the second.

First: H33I
Second: H33L
The abundance fitness of the first is higher: -0.006 ± 0.052 for the first, -0.119 ± 0.028 for the second.

H33S and H33G are within error of each other in abundance fitness: -0.008 ± 0.029 for the first, -0.054 ± 0.025 for the second.

G74T and G74H are within error of each other in abundance fitness: -0.4 ± 0.04 for the first, -0.355 ± 0.061 for the second.

Compared with G74N, G74C is lower in abundance fitness: -0.243 ± 0.056 for the first, -0.5 ± 0.066 for the second.

Going from G74Y to N21L, the abundance fitness rises from -0.521 ± 0.068 to -0.228 ± 0.025.

Compared with N21K, N21R is lower in abundance fitness: -0.186 ± 0.031 for the first, -0.268 ± 0.025 for the second.

N21T and K67V are within error of each other in abundance fitness: -0.041 ± 0.027 for the first, 0.002 ± 0.026 for the second.

K67C and K67D are within error of each other in abundance fitness: 0.013 ± 0.035 for the first, 0.02 ± 0.038 for the second.

Going from M14N to M14L, the abundance fitness rises from -0.337 ± 0.047 to 0.001 ± 0.029.

M14A and M14F are within error of each other in abundance fitness: -0.078 ± 0.036 for the first, -0.01 ± 0.04 for the second.

Going from R73M to R73N, the abundance fitness rises from -0.077 ± 0.032 to 0.038 ± 0.058.

R73I and R73S are within error of each other in abundance fitness: -0.04 ± 0.046 for the first, 0.025 ± 0.025 for the second.

First: R73E
Second: R73L
The abundance fitness of the first is higher: -0.02 ± 0.027 for the first, -0.113 ± 0.026 for the second.

Going from R39F to R39Q, the abundance fitness rises from -0.34 ± 0.051 to -0.024 ± 0.031.

First: R39G
Second: R39T
The abundance fitness of the first is lower: -0.136 ± 0.019 for the first, -0.07 ± 0.03 for the second.

Compared with R39N, I80K is lower in abundance fitness: 0.04 ± 0.037 for the first, -0.802 ± 0.15 for the second.

Going from I80A to I80Q, the abundance fitness falls from -0.468 ± 0.053 to -0.894 ± 0.13.

Compared with I80S, I80F is higher in abundance fitness: -0.424 ± 0.038 for the first, -0.098 ± 0.043 for the second.

I80V and M32Q are within error of each other in abundance fitness: 0.012 ± 0.037 for the first, 0.001 ± 0.045 for the second.

Going from M32G to M32N, the abundance fitness rises from -0.093 ± 0.028 to 0.062 ± 0.078.

Going from M32A to A29I, the abundance fitness falls from 0.058 ± 0.035 to -0.115 ± 0.066.

A29V and A29K are within error of each other in abundance fitness: -0.11 ± 0.034 for the first, -0.059 ± 0.043 for the second.

First: Q66F
Second: Q66K
The abundance fitness of the first is lower: -0.236 ± 0.049 for the first, -0.128 ± 0.034 for the second.

Q66R and E22L are within error of each other in abundance fitness: -0.104 ± 0.02 for the first, -0.135 ± 0.032 for the second.

G46P and G46C are within error of each other in abundance fitness: -0.877 ± 0.13 for the first, -0.721 ± 0.081 for the second.

G46A and G46M are within error of each other in abundance fitness: -0.624 ± 0.045 for the first, -0.553 ± 0.076 for the second.

Compared with G41F, G41T is higher in abundance fitness: -0.618 ± 0.061 for the first, -0.033 ± 0.03 for the second.

G41I and G41Y are within error of each other in abundance fitness: -0.55 ± 0.069 for the first, -0.639 ± 0.08 for the second.

G41H and G41Q are within error of each other in abundance fitness: -0.07 ± 0.043 for the first, -0.113 ± 0.034 for the second.

E12M and E12Q are within error of each other in abundance fitness: -0.016 ± 0.04 for the first, -0.063 ± 0.049 for the second.

E12A and E12V are within error of each other in abundance fitness: -0.08 ± 0.031 for the first, -0.139 ± 0.029 for the second.

E12S and E12G are within error of each other in abundance fitness: -0.089 ± 0.037 for the first, -0.059 ± 0.024 for the second.

Compared with L43V, L43W is lower in abundance fitness: -0.021 ± 0.024 for the first, -0.662 ± 0.041 for the second.

Compared with I49S, I49D is higher in abundance fitness: -0.886 ± 0.12 for the first, -0.24 ± 0.2 for the second.

For I49R, the abundance fitness was -0.858 ± 0.073.
